Experiments:
GalR1 = details: stated as known; cited from earlier work
[1] = tested on: galanin expression (galanin promoter estrogen response element); details: Howard et al 1997; Kaplan et al 1988; cited from earlier work
[2] = tested on: Gal−/− mice mammary gland; test: Prl treatment of Gal−/− mice throughout pregnancy (mini-osmotic pump); format: in vivo, mouse
Experimental: (§1) Mammary whole mounts were made by spreading the gland on a glass slide and fixing in 10% formalin solution. Glands were defatted in acetone before carmine alum (0.2% carmine, 0.5% aluminium sulfate) staining overnight. The whole mount was dehydrated using a graded ethanol series followed by xylene treatment for 60 min and storage and photography in methyl salicylate. Morphometric analysis was performed by counting the number of side branches, alveolar buds or lobuloalveoli per mammary gland (n=5) for mammary gland cultures or from 4 representative fields of view from whole 4th inguinal glands.
On the morning of the observation of a vaginal plug, 6-8 week old mice were implanted with a 0.25 μl per hour, 28 day mini-osmotic pump (Alzet) containing unmodified Prl prepared as described (23). Either 0.6 or 1.2 μg were delivered per 24 hr. On the first day post-partum maternal behaviour of mothers was observed, pups were examined for the presence of milk and glands were taken for histological analysis.
(§2) Quantitative PCR was performed using LightCycler technology (Roche). Primers were designed on the basis of mismatch to other genes for WDMN1, β-Actin, WAP, β-casein, […], Elf5, Glycam1, IGF1, GHR, SPOT 14 and PRLR. PCR reactions were performed in 10 μL volume with 1 μL of cDNA, 5 pmoles of each primer and FastStart DNA Master SYBR Green I enzyme mix (Roche) as per manufacturers instructions. Relative quantitation of the product was performed by comparing the crossing points of different samples normalised to an internal control (β-Actin). Each cycle in the linear phase of the reaction corresponds to a two fold difference in transcript levels between samples. Each reaction was performed in triplicate using pooled RNA from the 4-6 mammary glands or the treatment groups utilised for transcript profiling.

ERK1/2 = test: Western analysis of cultured mammary glands: MAP kinase pathway; format: cell-based, mice; details: western blot
Experimental: (§3) Four week old BALB/c mice were implanted with estrogen, progesterone and cholesterol pellets (Ginsburg and Vonderhaar, 2000). Following nine days of treatment, the whole fourth glands were removed and stretched onto siliconized lens paper and placed into petri dishes containing 2 mL of Waymouths 152/1 medium supplemented with penicillin (100 U/ml), streptomycin (100 μg/ml), gentamycin sulfate (50 μg/ml), 20 mM HEPES, insulin (5 μg/ml), hydrocortisone (100 ng/ml) and aldosterone (100 ng/ml) (basal medium, IAH) to monitor ductal side branching, with and without 100 nM rat galanin (Auspep). To assess lobuloalveolar development ovine PRL (Sigma, 1 μg/ml) was added to the basal medium with or without galanin. Glands were maintained in a tri-gas incubator at 50% O2 and 5% CO2 in air. Medium was changed after 24 hr, then every second day for 6 days before morphology and histology were assessed.
(§4) Following RNA extraction from mammary glands using TRIZOL Reagent (Gibco BRL), protein was extracted following the manufacturer's instructions. […] Specific binding was detected using Horseradish peroxidase conjugated secondary antibodies (Amersham Biosciences) with Chemiluminescence Reagent (PerkinElmer) and Biomax Light Film (Eastman Kodak Company).

[3] = tested on: milk proteins (WAP, α-casein, β-casein); test: Western analysis of cultured mammary glands: milk protein expression; format: cell-based, mice; details: western blot
Experimental: as §3, §4

Akt = test: Western analysis of cultured mammary glands: PI3 kinase pathway; format: cell-based, mice; details: western blot
Experimental: as §3
Following RNA extraction from mammary glands using TRIZOL Reagent (Gibco BRL), protein was extracted following the manufacturer's instructions. Protein was separated using SDS-PAGE (Bio-Rad Laboratories), transferred to PVDF (Millipore) and blocked overnight with 5% skim milk powder, 2% fetal bovine serum, 50 mM sodium phosphate, 50 mM NaCl and 0.1% Tween 20. Membranes were incubated with one of the following primary antibodies: α-milk protein (Accurate Chemical & Scientific Corporation), α-STAT5a (Upstate Biotech), α-phospho-STAT5, α-phospho-Erk1/2, α-Erk2, α-phospho-Akt (S473), α-phospho-Akt (T308), α-Akt (Cell Signaling Technology) or α-β-Actin (Sigma). 20 μg of protein was loaded per lane except for α-milk protein were 400 ng of protein was loaded. Specific binding was detected using Horseradish peroxidase conjugated secondary antibodies (Amersham Biosciences) with Chemiluminescence Reagent (PerkinElmer) and Biomax Light Film (Eastman Kodak Company).

[4] = tested on: mammary glands (lobuloalveolar development); test: Mammary gland whole organ culture, morphology and histology; format: cell-based, BALB/c mice
Experimental: as §1
as §3, with “To assess lobuloalveolar development ovine PRL (Sigma, 1 μg/ml) was added to the basal medium with or without galanin. Glands were maintained in a tri-gas incubator at 50% O2 and 5% CO2 in air.” left out

[5] = tested on: mammary gland gene expression; test: Transcript profiling of cultured mammary glands (Affymetrix MGU74Av2 GeneChips); format: cell-based, mice
Experimental: as §3
Total RNA was extracted using TRIZOL Reagent (Gibco BRL), purified using RNeasy Mini Kit (QIAGEN), cDNA synthesis performed using Superscript II (Invitrogen Life Technologies), synthesis of Biotin-labeled cRNA performed using BioArray HighYield RNA Transcript labeling Kit (Enzo Diagnostics) and hybridised to Affymetrix MGU74v2 GeneChips overnight as per manufacturers instructions. Arrays were performed in duplicate using 4-6 glands per treatment group from two separate replicate experiments. Analysis was performed using the Affymetrix GeneChip v5 software (MAS 5), with treatment groups compared back to IAH treatment as the baseline comparison. Principal Components Analysis was performed using JMP (SAS Institute). Venn diagrams where formed by selecting genes called increasing or decreasing by MAS 5 with a fold change greater then 1.7 compared to IAH. These groups were further restricted by excluding genes with a magnitude fold change >1.2 induced by the other treatments.
as §2

STAT5 = test: Western analysis of cultured mammary glands: JAK/STAT pathway; format: cell-based, mice; details: western blot
Experimental: as §3, §4

GALP (1-60): 60 amino acid neuropeptide, galanin-like peptide, binds GalR1 and GalR2 (APAHRGRGGWTLNSAGYLLGPVLHLPQMGDQDGKRETALEILDLWKAIDGLPYSHPPQPS; Galanin-like peptide; UniProt Q9UBC7 25-84, looked up)
affinity for GalR1 (GalR1): poor affinity

estrogen
increase of galanin expression [1]: about 4000 fold

B1: PRL: prolactin; ovine PRL (Sigma, 1 μg/ml) in culture, unmodified Prl by mini-osmotic pump in mice (protein, UniProt P01240 31-229, looked up)
Prolactin: TPVCPNGPGNCQVSLRDLFDRAVMVSHYIHNLSSEMFNEFDKRYAQGKGFITMALNSCHTSSLPTPEDKEQAQQTHHEVLMSLILGLLRSWNDPLYHLVTEVRGMKGVPDAILSRAIEIEEENKRLLEGMEMIFGQVIPGAKETEPYPVWSGLPSLQTKDEDARHSAFYNLLHCLRRDSSKIDTYLKLLNCRIIYNNNC
lactation and pup survival ([2]; 0.6 or 1.2 μg PRL per 24 hours by mini osmotic pump throughout pregnancy): restored lactation and allowed pup survival
lobuloalveolar density (mammary gland whole mounts) ([2]; PRL throughout pregnancy, 1st day post-partum): partial rescue
Keratin18 levels ([2]; PRL throughout pregnancy, quantitative RT-PCR): unchanged
milk protein gene expression (WDMN1, β-casein, WAP), lobuloalveolar differentiation ([2]; PRL throughout pregnancy, quantitative RT-PCR, 1st day post-partum): did not even partially rescue
phosphorylated ERK / sustained activation of the MAP kinase pathway (ERK1/2): dramatically increased
total ERK1/2 (ERK1/2): decreased
milk protein synthesis (WAP, α and β casein) [3]: synthesised
mobility of Akt (Akt): decreased mobility
phosphorylation of T308 and S473 residues of Akt (Akt): did not increase
total Akt (Akt): no increase
number of lobuloalveoli per gland ([4]; IAH medium, PRL 1 μg/ml with or without 100 nM galanin): 8.6±2.1
ductal or lobuloalveolar development by quantitative morphology and histology ([4]; added to IAH medium, 100 nM galanin or ovine PRL 1 μg/ml, 6 days culture): lobuloalveolar development was observed
PDGFRA expression ([5]; cultured mammary glands): prevents galanin from reducing
regulation of galanin or its receptors ([5]; cultured mammary glands): did not regulate
genes regulated that are not regulated by the other hormone (unique transcriptional influence) ([5]; fold change 1.7 versus IAH): 160 genes
genes that changed expression in response to all three treatments ([5]; fold change 1.7 versus IAH, 40% of all regulated genes): 136 genes
genes regulated regardless of the presence of the other hormone ([5]; fold change greater than 1.7 versus IAH): 154 genes
genes regulated by the other hormone whose regulation is antagonised ([5]; prolactin against galanin's unique genes, galanin against 160 prolactin regulated genes): 30/31
phosphorylated STAT5 / activation of the JAK/STAT pathway (STAT5): dramatic increase
total STAT5a (STAT5): increase

— patent US20080132445A1, “Method for Inducing Mammary Epithelial Cell Differentiation” (Garvan Institute of Medical Reserach, priority 2002, published 2008)
